Target: C0-C1-C2 region of the glutamate NMDAR NR1 subunit (mouse) (UniProt P35438)
Assay: pull-down; competition: 0.2 uM CaM with NR1 C0-C1-C2 covalently attached to NHS-activated Sepharose, 2.5 mM CaCl2, increasing concentrations of σ1R WT or E102Q; bound CaM and σ1R by western blot

Sequence of UniProt P35438 (P35438 834-938): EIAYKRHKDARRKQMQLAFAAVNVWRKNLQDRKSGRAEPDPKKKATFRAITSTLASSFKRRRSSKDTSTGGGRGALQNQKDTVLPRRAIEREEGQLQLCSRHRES

Substance | concentration that prevented the binding of 200 nM CaM to NR1 [nM] | concentration that abolished the binding of 200 nM CaM to NR1 [nM]
sigma receptor type 1 (σ1R) E102Q mutant (from UniProt O55242 1-223) (natural protein) | < 0.2 | 
sigma receptor type 1 (σ1R), wild-type (from UniProt O55242 1-223) (natural protein) |  | 60
